From FireProtDB (doi:10.1002/pro.5560010709) come the findings set out here.

For this series the following is noted: Bos taurus; pH 4.2; Thermal; CD; Sodium acetate 0.01 M; NaCl 0.1 M; reversible: yes; whole UniProt chain shown.

B1: Ribonuclease pancreatic wild type, P61823 (protein)
chain: MALKSLVLLSLLVLVLLLVRVQPSLGKETAAAKFERQHMDSSTSAASSSNYCNQMMKSRNLTKDRCKPVNTFVHESLADVQAVCSQKNVACKNGQTNCYQSYSTMSITDCRETGSSKYPNCAYKTTQANKHIIVACEGNPYVPVHFDASV
Consider B1, for which the melting temperature (Tm) – broadly, the temperature at which the thermal transition is half complete – was determined as 56 °C.
